For test [1], the target named is T1, recombinant human CD25 (IL2-Rα) (human, UniProt P01589 22-213, limits assumed).
T1 construct: Bought recombinant soluble protein; also called IL2 receptor α chain; recombinant soluble human CD25
T1 sequence (looked up): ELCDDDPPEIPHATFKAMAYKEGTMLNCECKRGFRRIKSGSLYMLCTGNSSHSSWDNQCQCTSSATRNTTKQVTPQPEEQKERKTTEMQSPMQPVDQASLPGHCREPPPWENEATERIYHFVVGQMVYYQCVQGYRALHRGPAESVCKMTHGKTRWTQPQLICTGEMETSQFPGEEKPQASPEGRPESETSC
As to the kind of experiment: competition ELISA: binding of biotinylated wild type daclizumab IgG to CD25 in the presence of titrated competitor Fab, O.D. 415. In general terms: An ELISA detects its analyte on a solid surface through an enzyme-linked reagent.
Description: Wells of 96-well ELISA plates (Nunc-Immuno MaxiSorp plates, Nalge Nunc, Rochester, N.Y.) were coated with 100 μL of 0.2 μg/mL CD25 (Pepro Tech Inc., Rocky Hill, N.J.) in 0.2 M sodium carbonate-bicarbonate buffer (pH 9.4, Pierce, Rockford, Ill.) overnight at 4° C. After washing with Wash Buffer, wells were blocked with 200 μL of Superblock Blocking Buffer (Pierce, Rockford, Ill.) for 30 min and then washed. […] The plate was then washed with washing buffer three times. After washing, 100 μL of 1 μg/mL HRP-conjugated Streptavidin (Pierce) diluted in ELISA buffer was added to each well. After 30 minutes of incubation at room temperature, plates were washed and bound antibodies were detected by addition of ABTS substrate (Kirkegaard & Perry Laboratories, Gaithersburg, Md.). […] Binding inhibition curves were fitted using nonlinear regression with the software [sequence]

For test [2], the target named is T1, recombinant human CD25 (IL2-Rα). As to the kind of experiment: ELISA competition assay on CD25 (format of Section 6.3.1.1: competitor antibody titrated against biotinylated daclizumab on plate-coated CD25), OD415.
Description: (§1) Wells of 96-well ELISA plates (Nunc-Immuno MaxiSorp plates, Nalge Nunc, Rochester, N.Y.) were coated with 100 μL of 0.2 μg/mL CD25 (Pepro Tech Inc., Rocky Hill, N.J.) in 0.2 M sodium carbonate-bicarbonate buffer (pH 9.4, Pierce, Rockford, Ill.) overnight at 4° C. After washing with Wash Buffer, wells were blocked with 200 μL of Superblock Blocking Buffer (Pierce, Rockford, Ill.) for 30 min and then washed. […] The plate was then washed with washing buffer three times. After washing, 100 μL of 1 μg/mL HRP-conjugated Streptavidin (Pierce) diluted in ELISA buffer was added to each well. After 30 minutes of incubation at room temperature, plates were washed and bound antibodies were detected by addition of ABTS substrate (Kirkegaard & Perry Laboratories, Gaithersburg, Md.). […] PRISM (GraphPad, San Diego) and reported as IC₅₀ wild type/IC₅₀ mutant (fold improvement over wild type control).
Test [3] has the same target. Described as above. The source holds these as a separate data set.
Description: as §1
The target is the same in test [4]. As to the kind of experiment: competitive ELISA on plate-coated CD25; competitor biotinylated daclizumab.
Description: as §1
The target is the same in test [5]. As to the kind of experiment: competition ELISA on plate-coated CD25; competitor biotinylated daclizumab.
Description: as §1

Read-outs that look alike come from different tables or passages of the source.

B1: VSR-SN Fab (Fab, V domains shown)
VH: QVQLVQSGAEVKKPGSSVKVSCKASGYTFTSYRMHWVRQAPGQGLEWIGYIVPSRGYTEYNQKFKDKATITADESTNTAYMELSSLRSEDTAVYYCARGGGVFDYWGQGTLVTVSS
VL: DIQMTQSPSTLSASVGDRVTITCSASSSISYMHWYQQKPGKAPKLLIYTTSNLASGVPARFSGSGSGTEFTLTISSLQPDDFATYYCHQRSTYPLTFGQGTKVEVK
notes: also called VSR-SN in Fab; copies: 1 + 1
For the molecule B1, the “IC50 (read off the curve)” value in test [1] was approximately 30 nM.

B2: NuhuTac (rehumanized anti-Tac) (antibody, V domains shown)
VH: EVQLVQSGAEVKKPGASVKVSCKASGYTFTSYRMHWVRQAPGQGLEWIGYINPSTGYTEYNQKFKDKATMTADKSISTAYMELSSLRSEDTAVYYCARGGGVFDYWGQGTLVTVSS
VL: EIVLTQSPATLSLSPGERATLTCSASSSISYMHWFQQKPGQAPRLLIYTTSNLASGIPARFSGSGSGTDYTLTISSLEPEDFAVYYCHQRSTYPLTFGQGTKVEIK
notes: VH on human framework R3.5H5G, VL on ka3d1; N-terminal Glu in VH; also called rehumanized antibody
Turning to B2, the values for the EC50 in test [2] and in test [3] were 0.71 µg/mL and 0.49 µg/mL, respectively.

B3: daclizumab VH variant RKGFE (antibody, IgG1, name in Kabat numbering, V domains shown)
VH: QVQLVQSGAEVKKPGSSVKVSCKASGYTFTSYRMHWVRQAPGQGLEWIGYIRPKGGFTEYNQKFKDKATITADESTNTAYMELSSLRSEDTAVYYCARGGGVFDYWGQGTLVTVSS
VL: DIQMTQSPSTLSASVGDRVTITCSASSSISYMHWYQQKPGKAPKLLIYTTSNLASGVPARFSGSGSGTEFTLTISSLQPDDFATYYCHQRSTYPLTFGQGTKVEVK
notes: VH library clone, soluble IgG1
On to B3, for which, in test [4], the “fold affinity over the parental antibody” value is approximately 10 fold.

B4: daclizumab VH variant RRGFE (antibody, IgG1, name in Kabat numbering, V domains shown)
VH: QVQLVQSGAEVKKPGSSVKVSCKASGYTFTSYRMHWVRQAPGQGLEWIGYIRPRGGFTEYNQKFKDKATITADESTNTAYMELSSLRSEDTAVYYCARGGGVFDYWGQGTLVTVSS
VL: DIQMTQSPSTLSASVGDRVTITCSASSSISYMHWYQQKPGKAPKLLIYTTSNLASGVPARFSGSGSGTEFTLTISSLQPDDFATYYCHQRSTYPLTFGQGTKVEVK
notes: as for B3
On to B4, for which the “fold affinity over the parental antibody” value in test [4] is approximately 10 fold.

B5: daclizumab VL S29R-S31T (antibody, IgG1, V domains shown)
VH: QVQLVQSGAEVKKPGSSVKVSCKASGYTFTSYRMHWVRQAPGQGLEWIGYINPSTGYTEYNQKFKDKATITADESTNTAYMELSSLRSEDTAVYYCARGGGVFDYWGQGTLVTVSS
VL: DIQMTQSPSTLSASVGDRVTITCSASSRITYMHWYQQKPGKAPKLLIYTTSNLASGVPARFSGSGSGTEFTLTISSLQPDDFATYYCHQRSTYPLTFGQGTKVEVK
notes: Soluble IgG1/kappa; also called R29T31
With B5, the “fold improvement in binding over daclizumab” value in test [5] was approximately 2 fold.

B6: daclizumab VH and NuhuTacVL (antibody, V domains shown)
VH: QVQLVQSGAEVKKPGSSVKVSCKASGYTFTSYRMHWVRQAPGQGLEWIGYINPSTGYTEYNQKFKDKATITADESTNTAYMELSSLRSEDTAVYYCARGGGVFDYWGQGTLVTVSS
VL: EIVLTQSPATLSLSPGERATLTCSASSSISYMHWFQQKPGQAPRLLIYTTSNLASGIPARFSGSGSGTDYTLTISSLEPEDFAVYYCHQRSTYPLTFGQGTKVEIK
On to B6, for which the EC50 (in general, the concentration giving half of the maximal effect) in test [3] came to 1.18 µg/mL.

B7: daclizumab VH variant RKGFN (antibody, IgG1, name in Kabat numbering, V domains shown)
VH: QVQLVQSGAEVKKPGSSVKVSCKASGYTFTSYRMHWVRQAPGQGLEWIGYIRPKGGFTNYNQKFKDKATITADESTNTAYMELSSLRSEDTAVYYCARGGGVFDYWGQGTLVTVSS
VL: DIQMTQSPSTLSASVGDRVTITCSASSSISYMHWYQQKPGKAPKLLIYTTSNLASGVPARFSGSGSGTEFTLTISSLQPDDFATYYCHQRSTYPLTFGQGTKVEVK
notes: as for B3
On to B7, for which the “fold affinity over the parental antibody” value in test [4] is approximately 10 fold.

B8: daclizumab VH variant QRKFH (antibody, IgG1, name in Kabat numbering, V domains shown)
VH: QVQLVQSGAEVKKPGSSVKVSCKASGYTFTSYRMHWVRQAPGQGLEWIGYIQPRKGFTHYNQKFKDKATITADESTNTAYMELSSLRSEDTAVYYCARGGGVFDYWGQGTLVTVSS
VL: DIQMTQSPSTLSASVGDRVTITCSASSSISYMHWYQQKPGKAPKLLIYTTSNLASGVPARFSGSGSGTEFTLTISSLQPDDFATYYCHQRSTYPLTFGQGTKVEVK
notes: as for B3
For B8, the “fold affinity over the parental antibody” value in test [4] was approximately 10 fold.

B9: NuhuTacVH with daclizumabVL (antibody, V domains shown)
VH: EVQLVQSGAEVKKPGASVKVSCKASGYTFTSYRMHWVRQAPGQGLEWIGYINPSTGYTEYNQKFKDKATMTADKSISTAYMELSSLRSEDTAVYYCARGGGVFDYWGQGTLVTVSS
VL: DIQMTQSPSTLSASVGDRVTITCSASSSISYMHWYQQKPGKAPKLLIYTTSNLASGVPARFSGSGSGTEFTLTISSLQPDDFATYYCHQRSTYPLTFGQGTKVEVK
In the case of B9, the concentration for a half-maximal effect (EC50) in test [3] was 0.47 µg/mL.

B10: daclizumab VH variant RRKFE (antibody, IgG1, name in Kabat numbering, V domains shown)
VH: QVQLVQSGAEVKKPGSSVKVSCKASGYTFTSYRMHWVRQAPGQGLEWIGYIRPRKGFTEYNQKFKDKATITADESTNTAYMELSSLRSEDTAVYYCARGGGVFDYWGQGTLVTVSS
VL: DIQMTQSPSTLSASVGDRVTITCSASSSISYMHWYQQKPGKAPKLLIYTTSNLASGVPARFSGSGSGTEFTLTISSLQPDDFATYYCHQRSTYPLTFGQGTKVEVK
notes: as for B3
Consider B10, for which the “fold affinity over the parental antibody” value in test [4] is approximately 10 fold.

B11: daclizumab VH variant SNKYL (antibody, IgG1, name in Kabat numbering, V domains shown)
VH: QVQLVQSGAEVKKPGSSVKVSCKASGYTFTSYRMHWVRQAPGQGLEWIGYISPNKGYTLYNQKFKDKATITADESTNTAYMELSSLRSEDTAVYYCARGGGVFDYWGQGTLVTVSS
VL: DIQMTQSPSTLSASVGDRVTITCSASSSISYMHWYQQKPGKAPKLLIYTTSNLASGVPARFSGSGSGTEFTLTISSLQPDDFATYYCHQRSTYPLTFGQGTKVEVK
notes: as for B3
Consider B11, for which the “fold affinity over the parental antibody” value in test [4] was approximately 10 fold.

The record behind these values is US20150010538A1 (AbbVie / Abbott, published 2015).
